The test system of the assay is amino acid at a terminal position of a polypeptide. The assay is described as follows: Amino acid binding preference of recognition proteins (Tables 1 and 2). The following applies: Table 1, ClpS proteins; amino acid identity at a terminal position of a polypeptide; inferred from literature and/or demonstrated by the inventors. The text has this:
It should be appreciated that these sequences and other examples described herein are meant to be non-limiting, and recognition molecules in accordance with the application can include any homologs, variants thereof, or fragments thereof minimally containing domains or subdomains responsible for peptide recognition.

B1: PS409: ClpS protein, SEQ ID NO: 32 (protein)
chain: MPARLTDIEGEPNTDPVEDVLLADPELKKPQMYAVVMYNDDYTPMEFVVDVLQNHFKHTLDSAISIMLAIHQQGKGIAGIYPKDIAETKAQTVNRKARQAGYPLLSQIEPQG
For the molecule B1, the “Binding Pref.” value is recorded as “F, Y, W, L”.

B2: PS369: ClpS protein, SEQ ID NO: 2 (protein)
chain: MTSTLRARPARDTDLQHRPYPHYRIIVLDDDVNTFQHVVNCLVTFLPGMTRDQAWAMAQQVDGEGSAVVWTGPQEQAELYHVQLGNHGLTMAPLEPV
Turning to B2, the “Binding Pref.” value is given as “F, Y, W, L”.

B3: PS425: ClpS protein, SEQ ID NO: 48 (protein)
chain: MTHYFSNILRDQESPKINPKELEQIDVLEEKEHQIILYNDDVNTFEHVIDCLVKICEHNYLQAEQCAYIVHHSGKCSVKTGSLDELVPKCNALLEEGLSAEVV
As to B3, the “Binding Pref.” value is “F, Y, W, L”.

B4: PS397: ClpS protein, SEQ ID NO: 25 (protein)
chain: MSDNEVAPKRKTRVKPKLERPRLYKVILVNDDYTPRDFVVMVLKAIFRMSEEAGYRVMMTAHKLGTSVVVVCARDIAETKAKEATDLGKEAGFPLMFTTEPEE
With B4, the “Binding Pref.” value is reported as “F, Y, W”.

B5: PS407: ClpS protein, SEQ ID NO: 30 (protein)
chain: MPSNKRQMCLSDIKNSFNESGIVDWHISPRLANEPSEEGDSDLAVQTVPPELKRPPLYAVVLLNDDYTPMEFVIEILQQYFAMNLDQATQVMLTVHYEGKGVAGVYPRDIAETKANQVNNYARSQGHPLLCQIEPKD
Regarding B5, the “Binding Pref.” value is listed as “F, Y, W, L”.

B6: PS370: ClpS protein, SEQ ID NO: 3 (protein)
chain: MFNSLGTVLDPKKSKAKYPEARVIVLDDNFNTFQHVANCLLAIIPRMCEQRAWDLTIKVDKAGSAEVWRGNLEQAELYHEQLFSKGLTMAPIEKT
In the case of B6, the “Binding Pref.” value is listed as “F, L”.

B7: PS423: ClpS protein, SEQ ID NO: 46 (protein)
chain: MAPTPAGAAVLDKQQQRRHKHASRYRVLLHNDPVNTMEYVVESLRQVVPQLSEQDAIAVMVEAHNTGVGLVIVCDIEPAEFYCEQLKTKGLTSSIEPED
In the case of B7, the “Binding Pref.” value is “F, Y, W”.

B8: PS408: ClpS protein, SEQ ID NO: 31 (protein)
chain: MTDPPSKGREDVDLATRTKPKTQRPPLYKVLLLNDDFTPMEFVVHILERLFGMTHAQAIEIMLTVHRKGVAVVGVFSHEIAETKVAQVMELARRQQHPLQCTMEKE
For the molecule B8, the “Binding Pref.” value was “F, Y, W, L”.

B9: PS404: ClpS protein, SEQ ID NO: 27 (protein)
chain: MPVSVTAPQTKTKTKPKVERPKLYKVILVNDDFTPREFVVRVLKAEFRMSEDQAAKVMMTAHQRGVCVVAVFTRDVAETKATRATDAGRAKGYPLLFTTEPEE
Consider B9, for which the “Binding Pref.” value is “F, Y, W”.

B10: PS413: ClpS protein, SEQ ID NO: 36 (protein)
chain: MMKQCGSYFLIKAVQDFKPLSKHRSDTDVITETKIQVKQPKLYTVIMYNDNYTTMDFVVYVLVEIFQHSIDKAYQLMMQIHESGQAAVALLPYDLAEMKVDEVTALAEQESYPLLTTIEPA
For the molecule B10, the “Binding Pref.” value was “F, Y, W, L”.

B11: PS411: ClpS protein, SEQ ID NO: 34 (protein)
chain: MTRPDAPEYDDDLAVEPAEPELARPPLYKVVLHNDDFTPMEFVVEVLQEFFNMDSEQAVQVMLAVHTQGKATCGIFTRDIAETKSYQVNEYARECEHPLMCDIEAAD
In the case of B11, the “Binding Pref.” value is on record as “F, Y, W, L”.

B12: PS415: ClpS protein, SEQ ID NO: 38 (protein)
chain: MALPETRTKIKPDVNIKEPPNYRVIYLNDDKTSMEFVIGSLMQHFSYPQQQAVEKTEEVHEHGSSTVAVLPYEMAEQKGIEVTLDARAEGFPLQVKIEPAER
With B12, the “Binding Pref.” value is recorded as “F, Y, W”.

B13: PS414: ClpS protein, SEQ ID NO: 37 (protein)
chain: MQAAGNEPPDPQNPGDVGNGGDGGNQDGSNTGVVVKTRTRTRKPAMYKVLMLNDDYTPMEFVVHVLERFFQKNREEATRIMLHVHRRGVGVCGVYTYEVAETKVTQVMDLARQNQHPLQCTIEKE
With B13, the “Binding Pref.” value is given as “F, Y, W, L”.

B14: PS417: ClpS protein, SEQ ID NO: 40 (protein)
chain: MSNLDTDVLIDEKVKVVTTEPEKYRVILLNDDVTPMDFVINILVSIFKHSTDTAKDLTLKIHKEGSAIVGVYTYEIAEQKGIEATNESRQHGFPLQVKIERENTL
Consider B14, for which the “Binding Pref.” value is “F, Y, W”.

B15: PS405: ClpS protein, SEQ ID NO: 28 (protein)
chain: MVSIGAATVACAEGRPIFSGYFDWLAAMPETVTVPRTRLRPKTERPKLHKVILVNDDYTPREFVVTVLKGEFHMSEDQAQRVMITAHRRGVCVVAVFTKDVAETKATRASDAGRAKGYPLQFTTEPEE
Turning to B15, the “Binding Pref.” value was “F, Y, W”.

B16: PS421: ClpS protein, SEQ ID NO: 44 (protein)
chain: MTTPNKRPEFEPEIGLEDEVGEPRKYKVLLHNDDYTTMDFVVQVLIEVFRKSETEATHIMLTIHEKGVGTCGIYPAEVAETKINEVHTRARREGFPLRASMEEV
Turning to B16, the “Binding Pref.” value is reported as “F, Y, W, L”.

B17: PS419: ClpS protein, SEQ ID NO: 42 (protein)
chain: MEKEQSLCKEKTHVELSEPKHYKVVFHNDDFTTMDFVVKVLQLVFFKSQLQAEDLTMKIHLEGSATAGIYSYDIAQSKAQKTTQMAREEGFPLRLTVEPEDN
As for B17, the “Binding Pref.” value was “F, Y, W, L”.

B18: PS412: ClpS protein, SEQ ID NO: 35 (protein)
chain: MATKREGSTLLEPTAAKVKPPPLYKVLLLNDDYTPMEFVVLVLKKFFGIDQERATQIMLKVHTEGVGVCGVYPRDIAHTKVEQVVDFARQHQHPLQCTMEES
Turning to B18, the “Binding Pref.” value is “F, Y, W, L”.

B19: PS396: ClpS protein, SEQ ID NO: 24 (protein)
chain: MSDNDVALKPKIKSKPKLERPKLYKVILVNDDFTPREFVIAVLKMVFRMSEETGYRVMLTAHRLGTSVVVVCARDIAETKAKEAVDFGKEAGFPLMFTTEPEE
Turning to B19, the “Binding Pref.” value is recorded as “F, W”.

B20: PS406: ClpS protein, SEQ ID NO: 29 (protein)
chain: MPDATTTPRTKTLTRTARPPLHKVILVNDDFTPREFVVRLLKAEFRTTGDEAQRIMITAHMKGSCVVAVFTREIAESKATRATETARAEGFPLLFTTEPEE
As to B20, the “Binding Pref.” value is recorded as “F, Y, W”.

B21: PS416: ClpS protein, SEQ ID NO: 39 (protein)
chain: MTSQTDTLVKPNIQPPSLFKVIYINDSVTTMEFVVESLMSVFNHSADEATRLTQLVHEEGAAVVAILPYELAEQKGMEVTLLARNNGFPLAIRLEPAV
On to B21, for which the “Binding Pref.” value is given as “F, Y, W, L”.

B22: PS420: ClpS protein, SEQ ID NO: 43 (protein)
chain: MSDYSNQISQAGSGVAEDASITLPPERKVVFYNDDFTTMEFVVDVLVSIFNKSHSEAEELMQTVHQEGSSVVGVYTYDIAVSRTNLTIQAARKNGFPLRVEVE
As for B22, the “Binding Pref.” value was “F, Y, W, L”.

B23: PS418: ClpS protein, SEQ ID NO: 41 (protein)
chain: MSDHNIDHDTSVAVHLDVVVREPPMYRVVLLNDDFTPMEFVVELLMHFFRKTAEQATQIMLNIHHEGVGVCGTYPREIAETKVAQVHQHARTNGHPLKCRMEPS
For the molecule B23, the “Binding Pref.” value is recorded as “F, Y, W, L”.

B24: PS398: ClpS protein, SEQ ID NO: 26 (protein)
chain: MPLKAQNRSIVGRRDEWPPPTTQSSSETKSESKRVSDTGADTKRKTKTVPKVEKPRLYKVILVNDDYTPREFVLVVLKAVFRMSEDQGYKVMITAHQKGSCVVAVYTRDIAETKAKEAVDLAKEIGFPLMFRTEPEE
Take B24: the “Binding Pref.” value is given as “F, W”.

B25: PS410: ClpS protein, SEQ ID NO: 33 (protein)
chain: MGDDDQSSREGEGDVAFQTADPELKRPSLYRVVLLNDDYTPMEFVVHILEQFFAMNREKATQVMLAVHTQGKGVCGVYTKDIAETKAALVNDYSRENQHPLLCEVEELDDESR
As for B25, the “Binding Pref.” value was “F, W, L”.

B26: PS371: ClpS protein, SEQ ID NO: 4 (protein)
chain: MATETIERPRTRDPGSGLGGHWLVIVLNDDHNTFDHVAKTLARVIPGVTVDDGYRFADQIHQRGQAIVWRGPKEPAEHYWEQLQDAGLSMAPLERH
As for B26, the “Binding Pref.” value is “F, Y, W, L”.

B27: PS424: ClpS protein, SEQ ID NO: 47 (protein)
chain: MSVETIEKRSTTRKLAPQYRVLLHNDDYNSMEYVVQVLMTSVPSITQPQAVNIMMEAHNSGLALVITCAQEHAEFYCETLKGHGLSSTIEPD
Consider B27, for which the “Binding Pref.” value is given as “F, Y, W”.

B28: PS422: ClpS protein, SEQ ID NO: 45 (protein)
chain: MTQIKPQTIPDTDVISQTQSDWQMPDLYAVIMHNDDYTTMDFVVFLLNAVFDKPIEQAYQLMMQIHQTGRAVVAILPYEIAEMKVDEATSLAEQEQFPLFISIEQA
As to B28, the “Binding Pref.” value is “F, Y, W, L”.
